The text below walks through data of US20230093399A1, “METHODS FOR GENERATING PLURIPOTENT STEM CELL-DERIVED BROWN FAT CELLS” (AgeX Therapeutics, Inc., priority 2013, published 2023).

This test deals with Bone marrow-derived mesenchymal stem cells (MSCs). Description: Differentiation of bone marrow-derived MSCs in HyStem-C beads, FABP4 expression. Format: cell-based. The conditions noted are these: 14 days, 50 ng/mL BMP2, or 10 ng/mL BMP4, or 100 ng/mL BMP7. As to the method:
The Gelin-S® component (10 mg of thiol-modified gelatin (BioTime)) is dissolved in 1.0 ml of degassed deionized water to prepare a 1% w/v solution, and polyethylene glycol diacrylate (10 mg of PEGDA) is dissolved in 0.5 ml of degassed deionized water to prepare a 2% w/v solution. Then, HyStem (1 ml, 1% w/v) is mixed with Gelin-S (1 ml, 1% w/v) immediately before use. Pelleted cells are resuspended in the recently prepared HyStem:Gelin-S (1:1 v/v) mix described above. Upon the addition of the PEGDA cross-linker, the cell suspension, at a final concentration of 2.0×10^7 cells/ml is aliquoted (25 μl/aliquot) into six-well plates (Corning® 3516; VWR, PA, USA) after partial gelation. Following complete gelation (20 min), Differentiation Medium is added to each well. Plates were then placed in a humidified incubator at 37° C. with ambient O2 and 10% CO2, and the cells were fed three-times weekly. At the desired time point, hydrogel constructs were either fixed and processed for immunohistochemical analysis or lysed using RLT (Qiagen, CA, USA) with 1% beta-mercaptoethanol for total RNA to analyze transcript expression using quantitative real-time PCR (qRT-PCR) and/or whole-genome microarray.

B1: BMP4: Bone Morphogenetic Protein 4, TGF-beta superfamily member (protein, UniProt P12644 293-408, looked up)
Bone morphogenetic protein 4: SPKHHSQRARKKNKNCRRHSLYVDFSDVGWNDWIVAPPGYQAFYCHGDCPFPLADHLNSTNHAIVQTLVNSVNSSIPKACCVPTELSAISMLYLDEYDKVVLKNYQEMVVEGCGCR
On to B1, for which the “differentiation into adipocytes as evidenced by expression of FABP4” value is recorded as “caused the differentiation of the cells into adipocytes”.
